Data on one substance can be found in patent publication US20260217835A1.

The assay concerns the target IgG4 Fc fragment SEQ ID NO: 102, no modification (Homo sapiens (Human)) [IgG part: P01861]. Nature of the assay: SEC peak area ratio; coexpression of full-length heavy chain, light chain and Fc fragment.

Sequence of IgG4 Fc fragment SEQ ID NO: 102, no modification (Homo sapiens (Human)) [IgG part: P01861] (P01861 other isoform, or with tags, fused parts or gaps limits assumed): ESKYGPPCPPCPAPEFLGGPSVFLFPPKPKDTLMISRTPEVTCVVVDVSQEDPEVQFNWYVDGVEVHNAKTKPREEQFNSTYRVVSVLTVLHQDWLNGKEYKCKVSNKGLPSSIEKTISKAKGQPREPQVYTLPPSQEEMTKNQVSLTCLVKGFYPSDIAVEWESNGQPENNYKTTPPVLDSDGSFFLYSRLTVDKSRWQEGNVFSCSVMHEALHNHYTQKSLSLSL

Consider “IgG4 full-length heavy chain SEQ ID NO: 110 with Q347E/S354Y/T366Y/Y407T, expressed with light chain SEQ ID NO: 61 (antibody)”, for which the Heteromultimer (%) is 4.6%.
